The chains are these.
T1: recombinant huIL-17A (SEQ ID NO: 76) (human, UniProt Q16552 24-155, limits assumed)
T1 sequence: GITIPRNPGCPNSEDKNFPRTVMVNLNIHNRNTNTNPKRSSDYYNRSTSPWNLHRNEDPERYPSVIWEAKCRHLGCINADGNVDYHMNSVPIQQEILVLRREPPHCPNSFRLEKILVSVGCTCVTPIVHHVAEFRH

T2: human IL-17A (construct not specified) (human, UniProt Q16552 24-155, limits assumed)
T2 construct: also called huIL-17A
T2 sequence: T1 sequence

T3: recombinant mIL-17A (mouse, UniProt Q62386 26-158)
T3 sequence: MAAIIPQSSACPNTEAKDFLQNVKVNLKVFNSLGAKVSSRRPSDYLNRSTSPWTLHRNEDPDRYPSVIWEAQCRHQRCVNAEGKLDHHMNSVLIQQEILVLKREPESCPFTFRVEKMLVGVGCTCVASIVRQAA

B1: XAB3 (antibody, human IgG1, kappa, V domains shown)
VH: EVQLVESGGDLVQPGGSLRLSCAASGFTFSSYWMSWVRQAPGKGLEWVANIKQDGSEKYYVDSVKGRFTISRDNAKNSLYLQMNSLRAEDTAVYYCARDRGSLYYWGQGTLVTVSS
VL: AIQLTQSPSSLSASVGDRVTITCRPSQGIYWELAWYQQKPGKAPKLLIYDASSLEQGVPSRFSGSGSGTDFTLTISSLQPEDFATYYCQQFNSYPLTFGGGTKVEIKR
B2: XAB5 (antibody, human IgG1, kappa, V domains shown)
VH: B1 VH
VL: B1 VL with Y30N, Q56N
B3: MB454 (Fab, V domains shown)
VH: B1 VH
VL: AIQLTQSPSSLSASVGDRVTITCRPSQGILWALAWYQQKPGKAPKLLIYDASSLENGVPSRFSGSGSGTDFTLTISSLQPEDFATYYCQQFNSYPLTFGGGTKVEIK
notes: Fab variant of XAB1
B4: MB453 (Fab, V domains shown)
VH: B1 VH
VL: B3 VL with L30V, W31F, A32W
notes: Fab variant of XAB1
B5: MB447 (Fab, V domains shown)
VH: B1 VH
VL: B3 VL with L30F, A32W
notes: Fab variant of XAB1
B6: MB438 (Fab, V domains shown)
VH: B1 VH
VL: B3 VL with L30P, W31Y
notes: Fab variant of XAB1
B7: MB461 (Fab, V domains shown)
VH: B1 VH
VL: B3 VL with L30Y, A32T
notes: Fab variant of XAB1
B8: MB434 (Fab, V domains shown)
VH: B1 VH
VL: B3 VL with L30W, A32Y
notes: Fab variant of XAB1
B9: MB433 (Fab, V domains shown)
VH: B1 VH
VL: B3 VL with L30Y, A32G
notes: Fab variant of XAB1
B10: MB444 (Fab, V domains shown)
VH: B1 VH
VL: B3 VL with A32E
notes: Fab variant of XAB1
B11: MB457 (Fab, V domains shown)
VH: B1 VH
VL: B3 VL with L30I, A32S
notes: Fab variant of XAB1
B12: MB463 (Fab, V domains shown)
VH: B1 VH
VL: B3 VL with L30Y, W31F, A32E
notes: Fab variant of XAB1
B13: MB458 (Fab, V domains shown)
VH: B1 VH
VL: B3 VL with L30W, W31Y, A32Q
notes: Fab variant of XAB1
B14: MB440 (Fab, V domains shown)
VH: B1 VH
VL: B3 VL with A32Q
notes: Fab variant of XAB1
B15: MB450 (Fab, V domains shown)
VH: B1 VH
VL: B3 VL with L30M, A32W
notes: Fab variant of XAB1
B16: MB448 (Fab, V domains shown)
VH: B1 VH
VL: B3 VL with L30V, A32M
notes: Fab variant of XAB1
B17: MB483 (Fab, V domains shown)
VH: B1 VH
VL: B3 VL with L30F, A32T
notes: Fab variant of XAB1
B18: MB464 (Fab, V domains shown)
VH: B1 VH
VL: B3 VL with L30I, W31Y, A32Q
notes: Fab variant of XAB1
B19: MB486 (Fab, V domains shown)
VH: B1 VH
VL: B3 VL with L30W, A32M
notes: Fab variant of XAB1
B20: MB435 (Fab, V domains shown)
VH: B1 VH
VL: B3 VL with L30N, A32E
B21: MB432 (Fab, V domains shown)
VH: B1 VH
VL: B3 VL with W31F
notes: Fab variant of XAB1
B22: MB491 (Fab, V domains shown)
VH: B1 VH
VL: B3 VL with L30F, W31F, A32W
notes: Fab variant of XAB1
B23: MB456 (Fab, V domains shown)
VH: B1 VH
VL: B3 VL with A32H
notes: Fab variant of XAB1
B24: MB468 (Fab, V domains shown)
VH: B1 VH
VL: B3 VL with L30Y, A32E
notes: Fab variant of XAB1

Changes are numbered by the printed parent chain.

For one assay, the target named is T1, recombinant huIL-17A (SEQ ID NO: 76). As to the kind of experiment: cell-based or functional assay.
With B1, the “IC50, huGROα secretion by BJ cells; rhuIL-17A (0.5 nM)” value stood at 0.42 nM.
Regarding B2, the “IC50, huGROα secretion by BJ cells; rhuIL-17A (0.5 nM)” value was 0.46 nM.

The next assay addresses T2, human IL-17A (construct not specified). As to the kind of experiment: ELISA, coated huIL-17A, long wash. On the technique in general: An ELISA detects its analyte on a solid surface through an enzyme-linked reagent.
Regarding B3, the “Off-rate ELISA (normalized to XAB1 Fab)” value amounted to 34.2 fold.
For B4, the “Off-rate ELISA (normalized to XAB1 Fab)” value worked out at 43.3 fold.
As for B5, the “Off-rate ELISA (normalized to XAB1 Fab)” value turned out to be 45.5 fold.
With B6, the “Off-rate ELISA (normalized to XAB1 Fab)” value turned out to be 41.5 fold.
With B7, the “Off-rate ELISA (normalized to XAB1 Fab)” value was found to be 49.8 fold.
Regarding B8, the “Off-rate ELISA (normalized to XAB1 Fab)” value is 44.4 fold.
Same read-out and setting: the figure for B9 is 39.7 fold; for B10 it is 48.9 fold; for B11 it is 34.7 fold.
For the molecule B12, the “Off-rate ELISA (normalized to XAB1 Fab)” value stood at 34.2 fold.
For B13, the “Off-rate ELISA (normalized to XAB1 Fab)” value was found to be 33 fold.
On the same count and under the same terms, as for B14, the figure is 52.5 fold; as for B15, 41.5 fold; as for B16, 40.4 fold.
Take B17: the “Off-rate ELISA (normalized to XAB1 Fab)” value worked out at 47.1 fold.
The same measure, in the same setting: the figure for B18 is 34.9 fold; for B19 it is 58.5 fold; for B20 it is 44.7 fold.
Consider B21, for which the “Off-rate ELISA (normalized to XAB1 Fab)” value came to 44.2 fold.
The same measure, in the same setting: the figure for B22 is 43 fold; for B23 it is 45.1 fold.
Still for that read-out and setting: as for B24, the figure is 43.9 fold.

A further assay shares this target. Description: ELISA, coated huIL-17A, crude Fab extract.
On to B3, for which the “Classic ELISA (normalized to XAB1 Fab)” value was 2.9 fold.
Same read-out and setting: as for B4, the figure is 2.7 fold.
On the same count and under the same terms, as for B5, the figure is 3 fold; as for B6, 2.7 fold; as for B7, 2.9 fold.
On the same count and under the same terms, as for B8, the figure is 2.4 fold.
In the case of B9, the “Classic ELISA (normalized to XAB1 Fab)” value amounted to 2.3 fold.
For the molecule B10, the “Classic ELISA (normalized to XAB1 Fab)” value amounted to 3.2 fold.
For the molecule B11, the “Classic ELISA (normalized to XAB1 Fab)” value is 2.7 fold.
As to B12, the “Classic ELISA (normalized to XAB1 Fab)” value was found to be 2.7 fold.
On the same count and under the same terms, as for B13, the figure is 2.7 fold; as for B14, 2.8 fold.
The same measure, in the same setting: the figure for B15 is 2.9 fold.
On the same count and under the same terms, the figure for B16 is 2.9 fold; for B17 it is 3.1 fold.
Turning to B18, the “Classic ELISA (normalized to XAB1 Fab)” value is 2.7 fold.
Still for that read-out and setting: the figure for B19 is 1.9 fold.
Same read-out and setting: as for B20, the figure is 2.7 fold; as for B21, 2.3 fold.
Still for that read-out and setting: as for B22, the figure is 2.1 fold; as for B23, 2.4 fold; as for B24, 2.8 fold.

A further assay deals with T3, recombinant mIL-17A. As to the kind of experiment: cell-based or functional assay.
With B1, the “IC50, KC secretion by CMT-93 cells; mIL-17A (0.15 nM)” value was under 1 nM.
The same measure, in the same setting: the figure for B2 is 7.8 nM.

A further assay deals with T2, human IL-17A (construct not specified). Description: cell-based or functional assay.
As to B1, the “EC50, T = 0 weeks” value came to 0.04 µg/mL and the “EC50, T = 4 weeks at pH 8, 40° C. (forced deamidation)” value came out at 40 ng/ml.
Take B2: the “EC50, T = 0 weeks” value stood at 0.045 µg/mL and the “EC50, T = 4 weeks at pH 8, 40° C. (forced deamidation)” value came to 61 ng/ml.

The target in a further assay is T1, recombinant huIL-17A (SEQ ID NO: 76). Description: cell-based or functional assay. The source holds these as a separate data set.
With B1, the “IC50, huIL-6 secretion by BJ cells; rhuIL-17A (0.5 nM)” value is 0.5 nM.
The same measure, in the same setting: the figure for B2 is 0.54 nM.

For another assay, the target named is T2, human IL-17A (construct not specified). Description: ELISA, coated huIL-17A, then 200 nM XAB1 Fab as competitor.
On to B3, for which the “Competition ELISA (normalized to XAB1 Fab)” value was 36.6 fold.
Take B4: the “Competition ELISA (normalized to XAB1 Fab)” value came out at 46.4 fold.
Same read-out and setting: as for B5, the figure is 57 fold.
For B6, the “Competition ELISA (normalized to XAB1 Fab)” value was 41.1 fold.
On the same count and under the same terms, the figure for B7 is 62.8 fold; for B8 it is 39.5 fold.
Still for that read-out and setting: the figure for B9 is 29.3 fold.
The same measure, in the same setting: the figure for B10 is 52.4 fold; for B11 it is 41 fold.
On to B12, for which the “Competition ELISA (normalized to XAB1 Fab)” value was 31.6 fold.
Still for that read-out and setting: as for B13, the figure is 42.1 fold; as for B14, 54 fold.
On the same count and under the same terms, the figure for B15 is 53.3 fold; for B16 it is 51.5 fold.
B17: the “Competition ELISA (normalized to XAB1 Fab)” value was 45.2 fold.
As to B18, the “Competition ELISA (normalized to XAB1 Fab)” value is 36.9 fold.
The same measure, in the same setting: the figure for B19 is 64.9 fold; for B20 it is 44.6 fold.
Take B21: the “Competition ELISA (normalized to XAB1 Fab)” value is 37.3 fold.
The same measure, in the same setting: as for B22, the figure is 44.2 fold; as for B23, 46.7 fold; as for B24, 60 fold.

Values taken from patent US20170291939A1 (Novartis, published 2017).
